Reference: the domain aggregation screens of Martell et al. (2025)

Test: soluble fraction after stress (log2 fold change); higher = more stays soluble; pooled small domains, quantitative proteomics
Conditions: stress: pH 4
How it was run: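 Values are on a log2 scale, where higher means more of the domain stayed soluble after pH 4 stress. They are fold changes in the soluble amount of each domain from pooled custom libraries, measured by high-throughput quantitative proteomics. The fold change is taken to reflect aggregation propensity.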

HMEQMSLISKKKGERIDKFLGENLGDLSRSYIQKLLKDGLILVNGKKVKANYKLNEGDQIDVEVPDP
soluble fraction (log2): 0.407

HMDRPEPLYIVNGKEVQTLEEAFELGRTLGSAKKGTQVRLRRLLPEEGVEKYGEKGRNGVFEFMVSA
soluble fraction (log2): 0.385

HMDNMFVEERQALIYEELQSNGRVRVKDLSKKFNVSEDLIRKDLNVLEKEGKLRKIYGGAVLAK
soluble fraction (log2): 0.071

HMSSWEDNFSYWIRNVAETLDKDLLNVANSKLEKIIINAALDQTNGKKNEAAILLGLGRNTLAKKIKELG
soluble fraction (log2): -0.929

HMQITQSSEPIDVSALRLGMFIHLEGGWLSHPFPRSSFKITSEDQLVTLRSLGISVLRWSPELSDPE
soluble fraction (log2): -1.46

HMGAAAQLLHAVVLRVPAEDTMKFVSETPELRRYLGAPLGPTAALVRPGQEQELAAALQAHGILVEFDE
soluble fraction (log2): 0.12

HMKVSAEEQNILDALQAAGGYLPFHDKSNPEEIYEAFGISKKTFKMIIGSLYKQQKINLTQTGIQLII
soluble fraction (log2): -0.637

HMDIADKLTKREFEIFIAIAMNKSRFDIANELGLSAKTVSNGLTVIKRKLNAVPSQFSAIAAKHGYIG
soluble fraction (log2): -0.408

HMRTKLEEAVEWLQEQLNDGPVLSKELESEAKAADILPGTLRRAGEALGVVKQKQGGRGGWTWSLPR
soluble fraction (log2): ≥ 0.43

HMTNLTPKQQQIYQFIRASTQANGYPPTLREIGQQVGVRSPSTVKYHLDNLRTLGLLHWDGGKTRSITLP
soluble fraction (log2): 0.0274

HMQQLTQRELTLLRLLANGYNNRQIAEQLQLAESTVKNNLSALFQKIGVRDRTQAVLFAISQGLVP
soluble fraction (log2): -0.462

HMRLADHVVEKLLALVQDRGLQPGQKLPAERQLAEELGVSRTSVREAIQKLTSQGVLSARRGDGTYLQS
soluble fraction (log2): 0.402

HMAAAKDVMDWQNAIRGLTDAKGKPYSPTYLKTVHNQLSALFNHAVRYYGLQVNPAAKAGNMGVEE
soluble fraction (log2): 0.00664

HMAAEIGSGVVDAYDLRLRSQPSTDAETIIYLDNGAKLSVQEDLGDWYKVVSGTYTGYVSAEYVAYTPSPE
soluble fraction (log2): -1.7

HMTEFDVIMKSFGSEKIKVIKEVRAITGLGLAEAKALVEGVPAKIKEQVSKDDAEALKKQLEAVGAEVEL
soluble fraction (log2): -0.76

HMAPQSAAAILRYLSSGAIRGVGPATAQRIVERFGTDSLEIIQNRPKELAAINGISINKALSISEEYAKQY
soluble fraction (log2): -0.0357

HMTTTTTYITNTDAVNIRQQATTSSTSLGKLAKNTILSVKKKSGDWYQITYKKQTAYIHASLVDKKTAKVT
soluble fraction (log2): ≥ 0.43

HMPIPIESEISRSPGQSIYAFVQQHYGRSGRSPADMRALVGLILRLNRQIRTPLLIPFGLVVVRPT
soluble fraction (log2): -0.253

HMSIMNEQIREILNQQVTKTSKIQQLLLLGLTRRQVADLVTNGNYGFVQNVYRNMLDAGIFTP
soluble fraction (log2): -0.487

HMHPEITLHPVRANIYSISVKNATSMEIYSVSGQLVGIRELKEGTNTLDLTGYINGVYIVNLQNKAFKLVK
soluble fraction (log2): -0.465

HMLKLPVEYLNLKYQLMHATSLDKPNNLMKLDEKLGKIIDVYYDDLPVDEQRVVDILQSKLYSY
soluble fraction (log2): -1.72

HMEWNREQLEQIVLQHIRKHGFITRATYTELTGRLKNSALADLKSFAAEGIIKRVGRGNQMHFIVPL
soluble fraction (log2): 0.221

HMENTELIELRKKRNLSQSQLAELLDLTRNQIANYESGRRIPDQETKQIIAGFFEMPAEEIFAG
soluble fraction (log2): -0.0656

HMTMKNPNGYGSVINLGKGRRRPWAARVTTGLVYDEKKDKLIQRYKYIGYADTRKEAHQILAEYNAGLPI
soluble fraction (log2): 0.0906

HMKQISQNIHRLRKEKGMSQEQLAQALHVTRQTVSAWERGIAQPSLDVLGQIAQLLGVEPERLLYGE
soluble fraction (log2): -0.16

HMNGARALAGAIAEAIRKQVYRVNERLPAERELASHYDVSRGTLRSALALLEQEGLVTRKVGSGTFVMPP
soluble fraction (log2): 0.161

HMGTPEQSAQFEQVLEELKNVPGPVMKAMQRAQDIYGYLPIEIQSRIGQAFGVSLEEVYGIATFYSQFNL
soluble fraction (log2): -2.6

HMETDNEKVRTAFQNGLAAYREQDWDRAEAAFGAVLAEMPEDRPSLVYLERIAHLRKKAPPGAWDGVWI
soluble fraction (log2): -1.07

HMTQSPLHWSHRPIDLSELLTYLDRDGAFVYASGHKAPFTEVVRGFEHLLNIRLGDPRDVKRSVLQR
soluble fraction (log2): -0.282

HMEMNDFETLRDMYLTGKIWNVGDIVEANGVRGKVIRKGTNYLSFVDEDNKVHKAWLYDIEE
soluble fraction (log2): -0.429

HMIHKTDAINLGQRLLKSSLKEFDVSLKDIPNKTLMYILSEYKFNSLDDLYREIGLGNVIPKLVALRMAP
soluble fraction (log2): -0.436

HMQLTDSDFTRLYTYVKNSYGIDLSKKKQLISSRLTNMLIQQGYRDFTQYTDEIISGKNPEMVSAMLNRLT
soluble fraction (log2): 0.0695

HMLPPVFLTIDANENVIVRKDGEPVQTLNKFELGAFARSQAENSAEQPVVLAADKSIKYEVVMEVI
soluble fraction (log2): -0.378

HMRESLSEAERHPRYLEGEDVVRMFLLMGDLSRVEAEVIALQWNAQEADRVGLPQDAKVFRTRAR
soluble fraction (log2): -0.417

HMKYFDRDLINYIQKTLAGKKIDFHEKIVPLIIELAGSDIRRVDEIIDMAEYSGKGMHVSEEMIRELAGDV
soluble fraction (log2): -1.72

HMQPPVDGNEIMEIFGIKGSPVIGVIKSTIKNAILDGIIAPNDREAALELMFRIADENGLKPVVTQTQ
soluble fraction (log2): -0.855

HMEDWTPERFVGAFVSGGPALRDEILLAATKDLSHAQATRLLKLAEARGLVHRSQPGPSERVRFVVARK
soluble fraction (log2): -0.0732

HMNSKMTYSDLIGNIEQGNVSSVELASDGKSATVTLTDNSQKQVNIPSLDSFVTYVQDHIKAGTLSVEE
soluble fraction (log2): 0.109

HMDDAVSHPDAGHIVTVTKVSADGTAEVMYRGASWRAKTADGSPLTAGSARIVRVDGAALVVEP
soluble fraction (log2): 0.116

HMIQYRKILELHFKDISQRTISTSVGSSRNTVSDVIKRSEQLGLERLTDNMNNRWLEEFLFPEKQ
soluble fraction (log2): -0.177

HMSTSAAELLRTARQQAGMSQSAVAELAKTSQSAIAMYEAGNREPSLPVLQRLLAATGHQLSLSVLP
soluble fraction (log2): 0.00437

HMTITIGNSDGGYMKMGADGFEVRFSGSDGGNHYAKMYYNNDGWARLTLGSYGEEKARIDSDGMIQTR
soluble fraction (log2): 0.208

HMTNQKEITYSQFRQELDQGSIKSVSLQGSRIRGTYVDGGISFRTLAPNDADLIPSLMKHKVDIQVLPED
soluble fraction (log2): 0.0675

HMAEDLRTLDGIDEDLLRDLAQAGITTRDGLAELSIDELREITGVEPGEAEKIILAARAHWFETDE
soluble fraction (log2): -1.19

HMEYTVNHYPEKHRFEVVEDGLTAYVEYRLRGDALDIIHTIVPKNLEGRGIAATLVETAYKYAKEQ
soluble fraction (log2): -1.35

HMDSSLVWVDYLLGSKLTKLNSSNELTGPGASAKTIGAFLGENKQSFDLYIESVHNARDTYSDILTHGT
soluble fraction (log2): -0.122

HMRVEEVGYGEFLQMAEERDLAEVQVTDTEIIFSDKDTPPNYYKTGRMDDPFLVDRLYSAGIRDFGE
soluble fraction (log2): -1.65

HMNAQLTTIPDLDGMNMRAATAMLSSLGLEVKRIGSGTVFAQFPKAGAAMRPGSMVTIRGKAKSL
soluble fraction (log2): 0.22

HMNNGYSINEIAKLMKMTLKVVRRYVASGELKTTKTNNTYSISEEAFNEFKKYIEEGGDAKHAQEVADTFK
soluble fraction (log2): -0.554

HMNTVSPAVSAQLRQELGGELNNANFQQLQQYLQAGQRDEAIVYLTSLGIESPRAVSIVNNAMDQIG
soluble fraction (log2): 0.00938

HMENFDNIFDQRLMPSLFIIRNINQAIENNNNNKFLLNSTISMKDKHWIEIHPHHLKLIISGYQT
soluble fraction (log2): -0.54

HMDGEITLYKVVGYIKASDFDDKKNGFVIADDYITKRQAEDTMYEWKRKKTYPYLEIKEYKGKDPYK
soluble fraction (log2): -0.0464

HMNNSSIGERLKYQRKIKGYSQEELADRTNVTVRTIQRIEKEEVSPHLNTIKLLAIALDIEVDELVAL
soluble fraction (log2): -1.18

HMEMSLGEKLKQARLTKNFSQEYMAEVLQISQKTYSNFENNKTKPDFSQIEEISKVLETSILEFLT
soluble fraction (log2): -0.0931

HMDESLLDYALREIKARIQNGTYPPGTKLSTQEISDSLGISRTPVVAAINRLVAQGVAEAIPRRGTIVAR
soluble fraction (log2): 0.015

HMVIIPNILNKYKGLAFRQLEQVGLKIGDTIYEPNIQRDAVLRMQINGRSVQPGDQVMRFSVVDLVIG
soluble fraction (log2): -1.14

HMVQQAVNMAKPGKLFTGPSPTSKALRDLDAGAMLYPTGEKQGPFWKVQDELGNEGWVAMGLLQLA
soluble fraction (log2): -0.0346

HMAADDGSARAEQLREMYSLISGLDKLDKAIILMWLDERSYDEIAEVTGFTRNNVATRLHRIKSRLARQSN
soluble fraction (log2): -1.19

HMTEDNDLETIAYDILKERNLNNININVKNGVLNIYGKTETLKEKREIEKILSSLNVSKINNLIKI
soluble fraction (log2): ≥ 0.43

HMEPSAQEIANKLLGHVKSLGLPITGLSISYNSTSDLATVRGQVQSQADREKIILAVGNVDHVAKVDDQLT
soluble fraction (log2): -0.0387

HMTESLVITVDPALHGLRLDRGLADALPDRSRSEVQRWIKEGRVQLHGAPAKPSLKLAAGDIVTIALPEE
soluble fraction (log2): 0.236

HMNPNFIEVSHGRLRVNVPLSAYEGTTYHIKPEEAEKLKRTLASRYPWLTPNALKVFIEEAEQAMRERIQ
soluble fraction (log2): 0.217

HMRITRREQQVLHLLAMGMTTREIAGHINLTERTVRNRISNLRDKLGAQTASQLLAKAVAQGLIEP
soluble fraction (log2): 0.426

HMNAPKKPLSAYFLFSQEERLKVKAENPDYSITEVAKELGKRWATLNPDIKTVYEQRYQDARRIYETEMNT
soluble fraction (log2): -0.102

HMHNNTITLNKKTYVYTASGKKMSKYLGYTYINKGTTLNYYGTKNIKGKTFYYIGDHAYVNAANVGKVTN
soluble fraction (log2): ≥ 0.43

HMEEKWKENYEKIKLFISINNRYPSVYSEDKEEGLIGSFMSNQKRRKNKLSKEKMALFEALPNWIWE
soluble fraction (log2): -0.812

HMEVAPEKVLEALNELPEIYKIVLNLYAVENMSHKEIAKKLGISLGSSKSRLSRGRVMLNTLLNR
soluble fraction (log2): -0.866

HMIMNEYEELRDRYLIGQIWKIGDLIEAKGIEGKIIQRGTNYVTFNDNNGKVHKAWLHEIKYEQ
soluble fraction (log2): -0.559

HMKGAADPAIKQKVLDYLDTVEKAKSKEIAKAISEEKSAVDLAVKELAFEDKVEYLYITTTFVALKGKVA
soluble fraction (log2): -0.865

HMDDATDVPYQEFRTQVTSGQVEIAQFNNNTGKISFQSTSGEKFETSGPLELSSDDERLFLENIEDFKFFT
soluble fraction (log2): -1.63
